In experiment [1] the target is T1, single chain CD94/NKG2A-Fc (CD94/NKG2A-IgG1 fusion polypeptide). Put plainly: competitive ELISA (HLA-E tetramer). For orientation: An ELISA detects its analyte on a solid surface through an enzyme-linked reagent.
In experiment [2] the target is T1, single chain CD94/NKG2A-Fc …. The experiment is described as follows: ELISA; FIG. 27.
Experiment [3] has the same target. Put plainly: BLI.
The target is the same in experiment [4]. The experiment is described as follows: competitive ELISA (HLA-E tetramer); FIG. 26.

T1 sequence (chain, as listed by the source): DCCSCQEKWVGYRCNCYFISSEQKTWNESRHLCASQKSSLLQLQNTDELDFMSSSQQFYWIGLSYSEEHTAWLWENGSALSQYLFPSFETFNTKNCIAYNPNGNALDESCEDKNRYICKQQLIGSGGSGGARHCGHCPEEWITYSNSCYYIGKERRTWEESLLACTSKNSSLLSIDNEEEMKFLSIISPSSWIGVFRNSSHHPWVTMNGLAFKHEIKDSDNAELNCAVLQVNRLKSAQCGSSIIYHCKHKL

B1: IgG Clone #2 (1B2-6, IgG1-LALA-PG) (antibody, V domains shown)
VH: EVQLVESGGGLVKPGGSLRLSCAASGFTFSGYYMSWIRQAPGKGLEWLAYISNSGRTIYYADSVKGRFTISRDNSNSSLYLQMNSLRAEDTAVYYCARGFYMDAWGKGTTVTVSS
VL: DIQMTQSPSSLSASVGDRVTITCRASQSISSYLNWYQQKPGKAPKLLIYAASSLQSGVPSRFSGSGSGTDFTLTISSLQPEDFGVYYCQYYGISPPFTFGPGTKVDIKR
What is called IC50 is the concentration that inhibits the measured activity by half. By EC50 is commonly meant the concentration that produces a half-maximal response. A high value points to a need for much substance. Molecule B1 gave a concentration for half-maximal inhibition (IC50) in experiment [1] of 1.4 nM. The EC50 in experiment [2] came out at 0.64 nM.

B2: IgG Clone #1 (1B2, IgG1-LALA-PG) (antibody, V domains shown)
VH: QVQLVESGGGLVKPGGSLRLSCAASGFTFSDYYMSWIRQAPGKGLEWVSYISSSGSTIYYADSVKGRFTISRDNAKNSLYLQMNSLRAEDTAVYYCARGFYMDAWGKGTTVTVSS
VL: DIQMTQSPSSLSASVGDRVTITCRASQSISSYLNWYQQKPGKAPKLLIYAASSLQSGVPSRFSGSGSGTDFTLTISSLQPEDFGVYYCQYYGISPPFTFGPGTKVDIKR
A word on the Kd: it is the concentration at which binding is half-saturated. As to B2, the concentration for half-maximal inhibition (IC50) in experiment [1] was found to be 9.6 nM; in experiment [4], 20 nM. Besides, the Kd in experiment [3] was determined as 1.14 nM. Besides, in experiment [2], the EC50 is 1.6 nM.

These data come from US20240415889A1 (published 2024).
